The values below come from paper PMC4872087 (Nucleic Acids Research, 2016).

As a reminder, the Kd is a measure of binding affinity in units of concentration. What is called IC50 is the concentration needed to halve the response being measured. A high value points to weaker potency.

Series [1] addresses Histone H3K4me3 (Homo sapiens) (UniProt P68431). The experiment in a line: ITC. The note with it: cited from earlier work.
In series [2] the target is T1, His-Spindlin1(49–262) (human, UniProt Q9Y657 49-262).
T1 construct: Spindlin1, human, amino acids 49-262; Modified pET15b with a minimal, non-cleavable hexahistidine tag; also called recombinant Spindlin1; source: E. coli BL21(DE3) codon plus, purified (Talon beads, gel filtration on superdex S75)
T1 sequence (Q9Y657 49-262): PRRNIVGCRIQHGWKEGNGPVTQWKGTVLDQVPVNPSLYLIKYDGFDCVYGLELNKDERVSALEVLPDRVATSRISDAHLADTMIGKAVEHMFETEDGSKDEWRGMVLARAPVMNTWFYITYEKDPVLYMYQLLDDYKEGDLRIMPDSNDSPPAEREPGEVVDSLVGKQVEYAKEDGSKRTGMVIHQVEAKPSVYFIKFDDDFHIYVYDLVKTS
The experiment in a line: fluorescence polarisation; His-Spindlin1(49–262) 0.06 to 750 nM titrated against 10 nM FL-H3K4me3; 60 min at 25°C; corrected for unspecific binding with 10 μM unlabeled H3(1–12)K4me3; one-site binding fit; 25 mM Hepes pH 7.5, 100 mM NaCl, 1 mg/ml BSA, 0.05% CHAPS. The note with it: both partners purified.

For series [3], the target named is T2, His-JMJD2C(874–988) (murine, UniProt Q8VCD7 874-988).
T2 construct: JMJD2C (lysine demethylase), murine, amino acids 874-988, double Tudor domain; Modified pET15b with a minimal, non-cleavable hexahistidine tag; also called JMJD2C-Td; JMJD2C-TD; source: E. coli BL21(DE3) codon plus, purified (Talon resin, gel filtration)
T2 sequence (looked up): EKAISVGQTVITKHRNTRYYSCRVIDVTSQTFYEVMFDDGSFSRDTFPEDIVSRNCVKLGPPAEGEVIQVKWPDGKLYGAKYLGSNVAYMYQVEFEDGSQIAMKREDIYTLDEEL
The experiment in a line: fluorescence polarisation; KD determination of the binding of FL-H3K4me3 to JMJD2C-Td; same optimization route as for Spindlin1. The note with it: both partners purified. On the technique in general: Polarisation of emitted light reports the rotation of a fluorescent probe.

The target of series [4] is T3, Spindlin1, expressed by HL-60 suspension cells (human (endogenous in HL-60), UniProt Q9Y657 1-262).
T3 construct: Spindlin1, endogenous in HL-60 cells, detected by Western blot with an anti-Spindlin1 antibody; also called Spindlin1 (CETSA); source: endogenous, HL-60 cell lysate
T3 sequence (Q9Y657 whole entry): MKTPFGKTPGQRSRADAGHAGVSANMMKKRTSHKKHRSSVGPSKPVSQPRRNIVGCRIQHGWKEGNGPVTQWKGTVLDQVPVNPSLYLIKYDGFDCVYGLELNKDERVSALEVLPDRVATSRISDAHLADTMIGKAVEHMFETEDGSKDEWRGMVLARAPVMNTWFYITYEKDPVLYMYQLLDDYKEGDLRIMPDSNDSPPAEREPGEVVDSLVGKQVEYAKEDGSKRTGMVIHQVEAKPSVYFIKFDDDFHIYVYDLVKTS
The experiment in a line: cellular thermal shift assay (CETSA) on cell lysate; HL-60 cell lysate treated with 500 μM H3(1–12)K4me3 or, as control, H3(1–21)K4me0 at 37°C for 60 min; heated 3 min at a temperature gradient; soluble Spindlin1 by Western blot; apparent Tagg. The note with it: one partner purified.

The target of series [5] is T1, His-Spindlin1(49–262). The experiment in a line: fluorescence polarisation; FP displacement assay: 100 nM His-Spindlin1(49–262), 10 nM FL-H3K4me3, dilution series of unlabeled competitor; incubation 15, 30, 60 and 90 min (IC50 values in that order); 25°C. The note with it: both partners purified.
The target of series [6] is T1, His-Spindlin1(49–262). The experiment in a line: AlphaScreen or HTRF; AlphaLISA displacement assay: 15 nM His-Spindlin1(49–262), 30 nM biotin-H3(1–23)K4me3, dilution series of unlabeled competitor; incubation 15, 30, 60 and 90 min (IC50 values in that order); 25 mM Hepes pH 7.5, 100 mM NaCl, 1 mg/ml BSA, 0.05% CHAPS; 25°C. The note with it: both partners purified. (In Alpha technology, singlet oxygen from a donor bead excites a nearby acceptor bead.)

Series [7] concerns the target T2, His-JMJD2C(874–988). Put plainly: fluorescence polarisation; FP displacement assay: 10 μM His-JMJD2C(874–988), 15 nM FL-H3K4me3, dilution series of unlabeled H3(1–12)K4me3. The note with it: both partners purified.
The target in series [8] is T2, His-JMJD2C(874–988). Put plainly: fluorescent thermal shift assay (FTSA); 0.4 mg/ml His-JMJD2C(874–988), 5x SYPRO Orange, dilution series of H3(1–12)K4me3; KD by regression of Tm against ligand concentration. The note with it: both partners purified.
The target in series [9] is T2, His-JMJD2C(874–988). The experiment in a line: AlphaScreen or HTRF; AlphaLISA displacement assay with His-JMJD2C(874–988) and biotin-H3(1–23)K4me3 (methods: 300 nM and 25 nM; legend: 5 μM and 200 nM), dilution series of unlabeled H3(1–12)K4me3; beads 0.02 mg/ml. The note with it: both partners purified.
For series [10], the target named is T1, His-Spindlin1(49–262). The experiment in a line: fluorescent thermal shift assay (FTSA); 0.1 mg/ml His-Spindlin1(49–262), 5x SYPRO Orange, dilution series of H3(1–12)K4me3; 100 mM Hepes pH 7.5, 150 mM NaCl; KD by regression of Tm against ligand concentration. The note with it: both partners purified.

Several values for one entry are separate records, joined by “and”; a condition that tells them apart may be missing. Identical values can stand only once. Ends that are not written are not given here. Me3 = trimethyl (trimethylated lysine)

With Spindlin1 (from UniProt Q9Y657), the Kd in series [1] was 250 nM.

B1: FL-H3K4me3 (peptide)
peptide: ARTKQTARKSTGGK
modifications: trimethylated lysine at position 4; mixed isomers of 5-(and-6)-carboxyfluorescein coupled to K14 side chain
notes: histone H3, N-terminal tail; also called fluorescent probe; fluorescein labeled peptide derived from histone H3; source: synthetic peptide, custom synthesized by Peptide Specialty Laboratories GmbH
B1: the dissociation constant (Kd) with His-Spindlin1(49–262) [2] came out at 31 nM; with His-JMJD2C(874–988) [3], 14500 ± 1900 nM.

B2: H3(1–12)K4me3 (peptide)
peptide: ARTK(Me3)QTARKSTG
notes: histone H3, amino acids 1-12; Free N-terminus (H2N-) and free C-terminus (-COOH) as printed; also called unlabeled H3K4me3 peptide; unlabeled H3(1–12)K4me3; source: synthetic peptide, custom synthesized by Peptide Specialty Laboratories GmbH
As for B2, the “ΔTagg (against lysate treated with H3(1–21)K4me0)” value in [4] is 5.9 °C. Moreover, the IC50 was 180 nM and 232 nM and 202 nM and 201 nM with His-Spindlin1(49–262) [5]; 118 nM (3×) and 116 nM with His-Spindlin1(49–262) [6]; 19100 ± 2100 nM with His-JMJD2C(874–988) [7]; 4500 ± 200 nM with His-JMJD2C(874–988) [9]. Also, the Kd in the series with His-JMJD2C(874–988) [8] is 12500 nM and 13300 nM; in the series with His-Spindlin1(49–262) [10] it was 380 nM.
